From patent US20200377555A1 (Janssen / Centocor, published 2020)

Key:
UFV160656 [1] = target: T1, UFV160656 (influenza A H1N1 A/California/07/09)
UFV160655 [2] = target: T2, UFV160655 (influenza A H1N1 A/Brisbane/59/07)
UFV5369 = UFV5369 (influenza A H1N1 A/California/07/09)
UFV160664 [3] = target: T3, UFV160664 (influenza A H1N1 A/California/07/09)
UFV160665 [4] = target: T4, UFV160665 (influenza A H1N1 A/California/07/09)
UFV160656 [5] = target: T1, UFV160656; test: ELISA, polypeptide coated, antibody titrated; average of 3 independent assays
UFV160655 [6] = target: T2, UFV160655; test: as above
UFV160664 [7] = target: T3, UFV160664; test: as above
UFV160665 [8] = target: T4, UFV160665; test: as above

B1: CR6261 (antibody, V domains shown)
VH: EVQLVESGAEVKKPGSSVKVSCKASGGPFRSYAISWVRQAPGQGPEWMGGIIPIFGTTKYAPKFQGRVTITADDFAGTVYMELSSLRSEDTAMYYCAKHMGYQVRETMDVWGKGTTVTVSS
VL: QSVLTQPPSVSAAPGQKVTISCSGSSSNIGNDYVSWYQQLPGTAPKLLIYDNNKRPSGIPDRFSGSKSGTSATLGITGLQTGDEANYYCATWDRRPTAYVVFGGGTKLTVLG
- Kd (UFV160656 [1]): 600 pM
- Kd (UFV160655 [2]): 550 pM
- Kd (UFV5369): 970 pM
- Kd (UFV160664 [3]): 570 pM
- Kd (UFV160665 [4]): 560 pM
- EC50 (UFV160656 [5]): 432 pM
- EC50 (UFV160655 [6]): 396 pM
- EC50 (UFV160664 [7]): 395 pM
- EC50 (UFV160665 [8]): 425 pM
